These results are taken from article PMC3880350, “The mononuclear metal center of type-I dihydroorotase from aquifex aeolicus” (BMC Biochemistry, 2013).

In data set [1] the target is T1, A. aeolicus DHO-ATC complex (DHO active site) (Aquifex aeolicus, UniProt O66990, H180A/H232A).
T1 construct: gene pyrC; both subunits full length with 3 kDa N-terminal His tag (pRSETC), expressed separately in E. coli BL21(DE3), mixed equimolar, dodecamer (6 DHO + 6 ATC) isolated by gel filtration; DHO 422 residues; with Aspartate carbamoyltransferase catalytic subunit
Briefly: X-ray crystal structure, […] Å. The format is binding. As to conditions: crystal soaked in 15 mM dihydroorotate, 1 mM PALA, pH 5; DHO active site with one zinc.

For data set [2], the target named is T2, A. aeolicus DHO-ATC complex (ATC active site) (Aquifex aeolicus, UniProt O66726).
T2 construct: gene pyrB; both with 3 kDa N-terminal His tag (pRSETC), E. coli BL21(DE3); with Dihydroorotase
Briefly: X-ray crystal structure, […] Å. The format is binding. The following applies: crystal soaked in 1 mM PALA, 15 mM dihydroorotate, pH 5, bisubstrate analogue, mutations only in the DHO partner.

Substrate in data set [3]: O=C1C[C@@H](C(=O)O)NC(=O)N1
Briefly: colorimetric carbamoyl aspartate formation, saturation curve. The format is biochemical, Aquifex aeolicus. From the text: colorimetric carbamoyl aspartate formation, saturation curve on A. aeolicus DHO-ATC complex (DHO active site)

Data set [4] concerns the molecule itself. Briefly: crystal structure; DHO double mutant-ATC complex, hanging drop, room temperature, 30% ethylene glycol with barium chloride; crystals soaked in 1 mM PALA and 15 mM dihydroorotate at pH 5; 2.2 Å.
Data set [5] addresses T3, Aquifex aeolicus dihydroorotase (DHO) subunit, His180Ala/His232Ala double mutant (Aquifex aeolicus, UniProt O66990 1-422, His180Ala | His232Ala).
T3 construct: Dihydroorotase (pyrC) of Aquifex aeolicus with His180 and His232 replaced by alanine; made by PCR on the plasmid that encodes the DHO subunit; 422 C-alpha atoms in the structure; Same construct as m1 with the two point mutations; In the crystal one zinc and dihydroorotate in the active site; also called DHO Double Mutant; mutant DHO
T3 sequence: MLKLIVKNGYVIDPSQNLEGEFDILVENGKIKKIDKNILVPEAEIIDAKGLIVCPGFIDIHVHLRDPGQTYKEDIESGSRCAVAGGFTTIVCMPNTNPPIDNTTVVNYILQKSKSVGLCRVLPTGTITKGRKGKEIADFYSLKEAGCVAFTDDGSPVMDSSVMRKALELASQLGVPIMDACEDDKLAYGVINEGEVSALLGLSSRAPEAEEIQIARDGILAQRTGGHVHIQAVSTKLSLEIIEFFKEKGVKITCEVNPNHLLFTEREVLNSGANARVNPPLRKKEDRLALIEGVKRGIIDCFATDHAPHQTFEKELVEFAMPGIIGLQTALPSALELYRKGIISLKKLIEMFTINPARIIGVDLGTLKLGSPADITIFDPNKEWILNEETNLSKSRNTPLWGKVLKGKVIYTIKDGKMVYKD
The data set can be described thus: SEC; purified subunits mixed in an equimolar ratio; complex isolated by gel filtration on a Sephacryl S-300 column; composition analysed by SDS-PAGE and ATC and DHO assays. The following applies: both partners purified. In general terms: In gel filtration, larger molecules generally elute earlier.

The target of data set [6] is T4, Aquifex aeolicus dihydroorotase (DHO) subunit, His180Ala mutant (Aquifex aeolicus, UniProt O66990 1-422, His180Ala).
T4 construct: Dihydroorotase (pyrC) of Aquifex aeolicus with His180 replaced by alanine; made by PCR on the plasmid that encodes the DHO subunit; Same construct as m1 with the point mutation
T4 sequence: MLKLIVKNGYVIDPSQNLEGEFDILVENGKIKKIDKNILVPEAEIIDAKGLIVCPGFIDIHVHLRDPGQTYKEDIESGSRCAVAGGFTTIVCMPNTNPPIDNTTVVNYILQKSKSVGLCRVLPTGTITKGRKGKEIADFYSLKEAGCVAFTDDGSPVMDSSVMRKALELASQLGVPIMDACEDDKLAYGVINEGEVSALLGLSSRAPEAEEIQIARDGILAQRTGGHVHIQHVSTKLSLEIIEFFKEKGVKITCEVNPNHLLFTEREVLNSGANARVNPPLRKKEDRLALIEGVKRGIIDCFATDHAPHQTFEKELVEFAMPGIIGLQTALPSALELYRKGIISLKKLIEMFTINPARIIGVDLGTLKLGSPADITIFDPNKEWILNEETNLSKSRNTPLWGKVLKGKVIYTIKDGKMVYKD
The data set is described as above. The following applies: both partners purified.

The target in data set [7] is T5, Aquifex aeolicus dihydroorotase (DHO) subunit, wild type (Aquifex aeolicus, UniProt O66990 1-422).
T5 construct: Dihydroorotase (pyrC) of Aquifex aeolicus; gene amplified by PCR from the genome and inserted into pRSETC; One zinc ion per subunit; also called Wild Type DHO; A. aeolicus DHO
T5 sequence: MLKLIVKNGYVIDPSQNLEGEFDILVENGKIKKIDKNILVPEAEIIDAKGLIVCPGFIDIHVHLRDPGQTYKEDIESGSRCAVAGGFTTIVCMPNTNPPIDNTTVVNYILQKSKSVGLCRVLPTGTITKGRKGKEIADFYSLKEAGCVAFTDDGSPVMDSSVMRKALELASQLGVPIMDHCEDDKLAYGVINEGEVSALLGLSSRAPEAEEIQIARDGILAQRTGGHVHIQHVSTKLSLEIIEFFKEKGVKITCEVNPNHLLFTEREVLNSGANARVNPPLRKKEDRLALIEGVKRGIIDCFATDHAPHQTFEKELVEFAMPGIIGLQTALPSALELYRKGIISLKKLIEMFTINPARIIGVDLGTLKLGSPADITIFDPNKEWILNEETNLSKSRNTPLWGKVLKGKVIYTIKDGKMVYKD
The description is as above. As to conditions: both partners purified.

The target in data set [8] is T6, Aquifex aeolicus dihydroorotase (DHO) subunit, His232Ala mutant (Aquifex aeolicus, UniProt O66990 1-422, His232Ala).
T6 construct: Dihydroorotase (pyrC) of Aquifex aeolicus with His232 replaced by alanine; made by PCR on the plasmid that encodes the DHO subunit; Same construct as m1 with the point mutation
T6 sequence: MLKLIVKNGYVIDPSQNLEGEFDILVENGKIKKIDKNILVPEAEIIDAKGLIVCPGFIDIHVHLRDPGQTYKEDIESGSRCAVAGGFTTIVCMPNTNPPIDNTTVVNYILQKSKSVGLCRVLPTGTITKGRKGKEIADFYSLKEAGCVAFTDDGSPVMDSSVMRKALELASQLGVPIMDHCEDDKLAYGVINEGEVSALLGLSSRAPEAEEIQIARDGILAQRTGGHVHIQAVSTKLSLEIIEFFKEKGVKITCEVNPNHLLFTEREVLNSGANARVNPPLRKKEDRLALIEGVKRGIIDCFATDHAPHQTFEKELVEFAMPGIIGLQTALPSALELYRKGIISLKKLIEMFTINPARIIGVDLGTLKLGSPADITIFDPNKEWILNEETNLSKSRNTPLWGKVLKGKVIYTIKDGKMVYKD
The description is as above. The following applies: both partners purified.

Setting [9] is: 250 mM Tris acetate (Figure 7; Methods: 50 mM), pH 8.3, 72°C, mutant DHO reconstituted with native ATC.

Consider `O=C1C[C@@H](C(=O)O)NC(=O)N1` [dihydroorotate], for which the “X-ray crystal structure, 2.2 Å” value in data set [1] was “one DHO subunit with one zinc atom and dihydroorotate in its active site”. Take `O=C(O)C[C@H](NC(=O)CP(=O)(O)O)C(=O)O` [PALA]: the “X-ray crystal structure, 2.2 Å” value in data set [2] was “bisubstrate analog, N-phosphoacetyl L-aspartate (PALA) bound to the active site of the A. aeolicus ATC”.

B1: A. aeolicus DHO-ATC complex (DHO active site) (Aquifex aeolicus VF5) (protein)
chain: MLKLIVKNGYVIDPSQNLEGEFDILVENGKIKKIDKNILVPEAEIIDAKGLIVCPGFIDIHVHLRDPGQTYKEDIESGSRCAVAGGFTTIVCMPNTNPPIDNTTVVNYILQKSKSVGLCRVLPTGTITKGRKGKEIADFYSLKEAGCVAFTDDGSPVMDSSVMRKALELASQLGVPIMDHCEDDKLAYGVINEGEVSALLGLSSRAPEAEEIQIARDGILAQRTGGHVHIQHVSTKLSLEIIEFFKEKGVKITCEVNPNHLLFTEREVLNSGANARVNPPLRKKEDRLALIEGVKRGIIDCFATDHAPHQTFEKELVEFAMPGIIGLQTALPSALELYRKGIISLKKLIEMFTINPARIIGVDLGTLKLGSPADITIFDPNKEWILNEETNLSKSRNTPLWGKVLKGKVIYTIKDGKMVYKD
notes: both subunits full length with 3 kDa N-terminal His tag (pRSETC), expressed separately in E. coli BL21(DE3), mixed equimolar, dodecamer (6 DHO + 6 ATC) isolated by gel filtration; DHO 422 residues; with Aspartate carbamoyltransferase catalytic subunit
For B1, in data set [3] (no exogenous zinc, 250 mM Tris acetate (Figure 4; Methods: 50 mM), pH 8.3, 75°C (Figure 4: 72°C), DHO reverse direction (hydrolysis)), the Km is 1520 ± 300 µM.

B2: A. aeolicus DHO-ATC complex (DHO active site) (Aquifex aeolicus VF5; H180A) (protein)
chain: MLKLIVKNGYVIDPSQNLEGEFDILVENGKIKKIDKNILVPEAEIIDAKGLIVCPGFIDIHVHLRDPGQTYKEDIESGSRCAVAGGFTTIVCMPNTNPPIDNTTVVNYILQKSKSVGLCRVLPTGTITKGRKGKEIADFYSLKEAGCVAFTDDGSPVMDSSVMRKALELASQLGVPIMDACEDDKLAYGVINEGEVSALLGLSSRAPEAEEIQIARDGILAQRTGGHVHIQHVSTKLSLEIIEFFKEKGVKITCEVNPNHLLFTEREVLNSGANARVNPPLRKKEDRLALIEGVKRGIIDCFATDHAPHQTFEKELVEFAMPGIIGLQTALPSALELYRKGIISLKKLIEMFTINPARIIGVDLGTLKLGSPADITIFDPNKEWILNEETNLSKSRNTPLWGKVLKGKVIYTIKDGKMVYKD
notes: as for B1
B2: in data set [3] (setting [9]), the Km came out at 1650 ± 260 µM.

B3: A. aeolicus DHO-ATC complex (DHO active site) (Aquifex aeolicus VF5; H180A/H232A) (protein)
chain: MLKLIVKNGYVIDPSQNLEGEFDILVENGKIKKIDKNILVPEAEIIDAKGLIVCPGFIDIHVHLRDPGQTYKEDIESGSRCAVAGGFTTIVCMPNTNPPIDNTTVVNYILQKSKSVGLCRVLPTGTITKGRKGKEIADFYSLKEAGCVAFTDDGSPVMDSSVMRKALELASQLGVPIMDACEDDKLAYGVINEGEVSALLGLSSRAPEAEEIQIARDGILAQRTGGHVHIQAVSTKLSLEIIEFFKEKGVKITCEVNPNHLLFTEREVLNSGANARVNPPLRKKEDRLALIEGVKRGIIDCFATDHAPHQTFEKELVEFAMPGIIGLQTALPSALELYRKGIISLKKLIEMFTINPARIIGVDLGTLKLGSPADITIFDPNKEWILNEETNLSKSRNTPLWGKVLKGKVIYTIKDGKMVYKD
notes: as for B1
As to B3, in data set [3] (setting [9]), the Km worked out at 1550 ± 300 µM.

B4: A. aeolicus DHO-ATC complex (DHO active site) (Aquifex aeolicus VF5; H232A) (protein)
chain: MLKLIVKNGYVIDPSQNLEGEFDILVENGKIKKIDKNILVPEAEIIDAKGLIVCPGFIDIHVHLRDPGQTYKEDIESGSRCAVAGGFTTIVCMPNTNPPIDNTTVVNYILQKSKSVGLCRVLPTGTITKGRKGKEIADFYSLKEAGCVAFTDDGSPVMDSSVMRKALELASQLGVPIMDHCEDDKLAYGVINEGEVSALLGLSSRAPEAEEIQIARDGILAQRTGGHVHIQAVSTKLSLEIIEFFKEKGVKITCEVNPNHLLFTEREVLNSGANARVNPPLRKKEDRLALIEGVKRGIIDCFATDHAPHQTFEKELVEFAMPGIIGLQTALPSALELYRKGIISLKKLIEMFTINPARIIGVDLGTLKLGSPADITIFDPNKEWILNEETNLSKSRNTPLWGKVLKGKVIYTIKDGKMVYKD
notes: as for B1
Turning to B4, the Km in data set [3] (setting [9]) turned out to be 1340 ± 220 µM.

B5: Aquifex aeolicus aspartate transcarbamoylase (ATC) subunit (enzyme)
chain: MRSLISSLDLTREEVEEILKYAKEFKEGKEETIKASAVLFFSEPSTRTRLSFEKAARELGIETYLVSGSESSTVKGESFFDTLKTFEGLGFDYVVFRVPFVFFPYKEIVKSLNLRLVNAGDGTHQHPSQGLIDFFTIKEHFGEVKDLRVLYVGDIKHSRVFRSGAPLLNMFGAKIGVCGPKTLIPRDVEVFKVDVFDDVDKGIDWADVVIWLRLQKERQKENYIPSESSYFKQFGLTKERFEKVKLYMHPGPVNRNVDIDHELVYTEKSLIQEQVKNGIPVRKAIYKFLWT
notes: Aspartate transcarbamoylase (pyrB) of Aquifex aeolicus; gene amplified by PCR from the genome and inserted into pRSETC; 291 residues superposed in the structure; also called native ATC; pyrB product
On to B5, for which the “stoichiometry N” value in data set [4] is 3. The binding result in data set [5], in data set [6], in data set [7] and in data set [8] was “binds” in each case.

A word on the Km: it is the substrate concentration at which the rate is half of its maximum. Usually stoichiometry N stands for the number of molecules, sites or subunits per partner or assembly.
